Assay results as given in patent US20240417469A1 (CONCEPT TO MEDICINE BIOTECH, published 2024).
Several values for one entry are separate records, joined by “and”; a condition that tells them apart may be missing. Identical values can stand only once. Like-named read-outs stand apart in the source and are kept apart here.

B1: Hu155A9B1-6 (antibody, V domains shown)
VH: EVQLQESGPGLVKPSETLSLTCTVSGFSLTSYNVHWVRQPPGKGLEWMGRVRYNGDTSYNSALKSRLTISRDTSKNQASLKLSSVTAADTAVYYCTRGPYGGSSEPLFDYWGQGTMVTVSS
VL: DIQMTQSPSSLSASVGDRVTITCKASQNINKYLNWYQQKPGKAPRLLIYTTNNLQTGVPSRFSGSGSGTDFTLTISSLQPEDFATYYCLQHNSGYTFGQGTKLEIK
notes: humanized mAb
B2: SP34 monoclonal antibody (antibody, human IgG1, lambda, N297A, V domains shown)
VH: EVQLVESGGGLVQPKGSLKLSCAASGFTFNTYAMNWVRQAPGKGLEWVARIRSKYNNYATYYADSVKDRFTISRDDSQSILYLQMNNLKTEDTAMYYCVRHGNFGNSYVSWFAYWGQGTLVTVSA
VL: QAVVTQESALTTSPGETVTLTCRSSTGAVTTSNYANWVQEKPDHLFTGLIGGTNKRAPGVPARFSGSLIGDKAALTITGAQTEDEAIYFCALWYSNLWVFGGGTKLTVLG
notes: also called SP34 (Biointron, B6762)
B3: 192A7B9 chimeric mAb (antibody, V domains shown)
VH: QVQLKESGPGLVQPSQTLSLNCTVSGFSLTSYNVHWVRQPPGKGLEWMGRMRYNGDTSYNSALKSRLSISRDTSKNQVFLKMNSLQTDDTGTYYCTRGPRGGYYSALFDYWGQGVMVTVSS
VL: DIQMTQSPSFLSASVGDRVTINCKASQNINRYLNWYQQKLGDAPKVLISIANSLQTGIPSRFSGSGSGTDFTLTISSLQPEDVATYFCLQHNSWYTFGAGTKLELK
notes: Chimeric mAb
B4: 155A9B1 chimeric mAb (antibody, V domains shown)
VH: QVQLKESGPGLVQPSQTLSLTCTVSGFSLTSYNVHWVRQPPGKGLEWMGRVRYNGDTSYNSALKSRLSISRDTSKNQAFLKMNSLQIDDTGTYYCTRGPYGGSSEPLFDYWGQGVMVTVSS
VL: DIKMTQSPSFLSASVGDRVTINCKASQNINKYLNWFQQKLGEAPRLLIYTTNNLQTGIPSRFSGSGSGTDFTLTISSLQPEDVATYFCLQHNSGYTFGAGTKLELK
notes: Chimeric mAb
B5: 153A6B1 chimeric mAb (antibody, V domains shown)
VH: QVQLKESGPGLVQPSQTLSLTCTVSGFSLTSYNIHWVRQPPGKGLEWMGRIRYNGDTSYNSALKSRLSISRDTSKNQVFLKMSSLQTDDTGTYYCTRGPYGGSREPLFDYWGQGVMVTVSS
VL: DIKMTQSPSFLSAAVGDRVTINCKTSQNINKYLNWFQQKLGAAPKLLIYTTNNLQTGIPSRFSGSGSGTDFTLTISSLQPEDVATYFCLQHGSGYTFGAGTKLELK
notes: Chimeric mAb of the hybridoma clone; also called 153A6B1C8

Key:
[1] = molecular target: T1, human CD3 on cells (human PBMC; Jurkat TCR/CD3 NFAT reporter cells) (human, UniProt P07766 23-207; P04234 22-171; P09693 23-182); assay: cell-based or functional assay
T1 sequence (P07766 23-207, chain 1 of 3): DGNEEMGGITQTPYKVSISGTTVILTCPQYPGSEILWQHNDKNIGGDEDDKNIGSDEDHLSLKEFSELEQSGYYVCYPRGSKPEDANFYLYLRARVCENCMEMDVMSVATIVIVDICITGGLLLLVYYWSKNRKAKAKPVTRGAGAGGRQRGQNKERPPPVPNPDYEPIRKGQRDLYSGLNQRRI
T1 sequence (P04234 22-171, chain 2 of 3): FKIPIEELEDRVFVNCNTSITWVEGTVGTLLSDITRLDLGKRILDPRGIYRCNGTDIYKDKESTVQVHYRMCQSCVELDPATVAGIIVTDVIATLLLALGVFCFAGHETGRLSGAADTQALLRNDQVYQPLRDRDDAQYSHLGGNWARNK
T1 sequence (P09693 23-182, chain 3 of 3): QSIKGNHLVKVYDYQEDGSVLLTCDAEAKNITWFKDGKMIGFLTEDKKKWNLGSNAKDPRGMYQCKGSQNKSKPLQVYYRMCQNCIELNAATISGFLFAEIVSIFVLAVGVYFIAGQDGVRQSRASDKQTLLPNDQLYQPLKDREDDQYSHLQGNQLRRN

[2] = molecular target: T1, human CD3 on cells (human PBMC; Jurkat …); assay: cell-based or functional assay; remark: listed apart in the source
[3] = molecular target: T2, human CD3 protein (human, UniProt P07766 23-126; P04234 22-105); assay: ELISA, plate-coated CD3
T2 construct: ELISA coating protein; also called Human CD3D & CD3E Heterodimer Protein
T2 sequence (P07766 23-126 limits assumed, chain 1 of 2): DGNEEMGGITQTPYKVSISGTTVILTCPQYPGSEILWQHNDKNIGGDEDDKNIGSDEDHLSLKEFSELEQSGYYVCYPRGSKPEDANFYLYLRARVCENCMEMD
T2 sequence (P04234 22-105 limits assumed, chain 2 of 2): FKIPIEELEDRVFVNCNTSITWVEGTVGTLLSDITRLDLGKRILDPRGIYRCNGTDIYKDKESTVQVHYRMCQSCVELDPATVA

[4] = molecular target: T3, recombinant CD3D&E protein (human CD3-his tag) (human, UniProt P04234 22-105; P07766 23-126, limits assumed); assay: SPR Biacore, Ab captured on Protein A
T3 construct: Analyte in Biacore; also called CD3D&E-His; CD3d&ε-His
T3 sequence (P04234 22-105 limits assumed, chain 1 of 2): as the sequence (P04234 22-105 limits assumed, chain 2 of 2) above
T3 sequence (P07766 23-126 limits assumed, chain 2 of 2): as the sequence (P07766 23-126 limits assumed, chain 1 of 2) above

[5] = molecular target: T1, human CD3 on cells (human PBMC; Jurkat …); assay: FACS on human PBMC, PE anti-human IgG Fc secondary, geometric mean fluorescence
[6] = molecular target: T4, cynomolgus CD3 protein (cynomolgus); assay: ELISA, plate-coated CD3
T4 construct: ELISA coating protein
T4 sequence (Q95LI5 22-117, chain 1 of 2): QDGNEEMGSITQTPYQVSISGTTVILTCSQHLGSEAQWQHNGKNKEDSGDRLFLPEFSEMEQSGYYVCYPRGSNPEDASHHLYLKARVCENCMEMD
T4 sequence (Q95LI8 22-105, chain 2 of 2, further chain): as the sequence (P04234 22-105 limits assumed, chain 2 of 2) above, with I5V, N15K, I20V, S32T, D33N, I34N, T64A, S74N, V83L counted along it

[7] = molecular target: T2, human CD3 protein; assay: ELISA, plate-coated CD3; remark: listed apart in the source
[8] = molecular target: T3, recombinant CD3D&E protein (human …); assay: SPR Biacore, Ab captured on Protein A; remark: listed apart in the source
[9] = molecular target: T5, cynomolgus CD3 on cynomolgus PBMC (cynomolgus, UniProt Q95LI5 22-198; Q95LI8 22-171; Q95LI7 23-181); assay: FACS on cynomolgus PBMC, PE anti-human IgG Fc secondary, geometric mean fluorescence
T5 construct: whole, on cells; Native CD3 complex on cynomolgus T cells; also called cyno PBMC; cynoPBMCs
T5 sequence (Q95LI5 22-198, chain 1 of 3): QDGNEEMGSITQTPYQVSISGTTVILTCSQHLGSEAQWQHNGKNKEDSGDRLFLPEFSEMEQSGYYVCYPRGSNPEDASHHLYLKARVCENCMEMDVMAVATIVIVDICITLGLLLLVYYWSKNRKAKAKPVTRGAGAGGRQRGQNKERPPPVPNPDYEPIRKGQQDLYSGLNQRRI
T5 sequence (Q95LI8 22-171, chain 2 of 3): as the sequence (P04234 22-171, chain 2 of 3) above, with I5V, N15K, I20V, S32T, D33N, I34N, T64A, S74N, V83L, H141R counted along it
T5 sequence (Q95LI7 23-181, chain 3 of 3): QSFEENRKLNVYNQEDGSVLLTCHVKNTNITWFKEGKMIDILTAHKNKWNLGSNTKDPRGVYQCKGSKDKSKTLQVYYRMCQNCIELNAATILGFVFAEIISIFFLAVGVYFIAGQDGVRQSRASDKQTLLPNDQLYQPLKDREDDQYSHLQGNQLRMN
Throughout, for Emax: unit not given here.

Binder	% of SP34 [1] [%]	Emax [1]	CD3-NFAT Activity by CD3 mAb [2] [% SP34]	EC50 [3]	Kd [4] [nM]	koff [4] [s⁻¹]	kon [4] [M⁻¹ s⁻¹]	EC50 (read off the curve) [5] [nM]	EC50 [6] [ng/mL]	EC50 [7] [ng/mL]	Kd [8] [nM]	koff [8] [s⁻¹]	kon [8] [M⁻¹ s⁻¹]	binding result [9]
B1	84.8	4300	> 50	4.16 ng/mL	62.1	0.00593	95400	–	–	–	–	–	–	–
B2	100	–	–	–	–	–	–	~1	6.18	6.48	6.89	0.00292	424000	binds
B3	–	–	–	2.53 ng/mL and 2.85 ng/mL and 2.16 ng/mL and 2.3 ng/mL	6.34	0.000442	69700	–	2.16	1.91	6.34	0.000442	69700	binds
B4	–	–	–	2.7 ng/mL and 2.54 ng/mL and 2.34 ng/mL	36.1	0.00207	57200	–	2.33	2.15	36.1	0.00207	57200	binds
B5	–	–	–	3.42 ng/mL and 2.91 ng/mL and 2.74 ng/mL	8.69	0.000694	79900	–	2.88	2.79	8.69	0.000694	79900	binds
